Paper PMC6393309 (Nucleic Acids Research, 2019)

B1: NTD: N-terminal domain of Redβ, residues 1–177 (protein)
chain: MSTALATLAGKLAERVGMDSVDPQELITTLRQTAFKGDASDAQFIALLIVANQYGLNPWTKEIYAFPDKQNGIVPVVGVDGWSRIINENQQFDGMDFEQDNESCTCRIYRKDRNHPICVTEWMDECRREPFKTREGREITGPWQSHPKRMLRHKAMIQCARLAFGFAGIYDKDEAER
B2: F249A Redβ: Redβ variant (protein)
chain: MSTALATLAGKLAERVGMDSVDPQELITTLRQTAFKGDASDAQFIALLIVANQYGLNPWTKEIYAFPDKQNGIVPVVGVDGWSRIINENQQFDGMDFEQDNESCTCRIYRKDRNHPICVTEWMDECRREPFKTREGREITGPWQSHPKRMLRHKAMIQCARLAFGFAGIYDKDEAERIVENTAYTAERQPERDITPVNDETMQEINTLLIALDKTWDDDLLPLCSQIFRRDIRASSELTQAEAVKALGALKQKAAEQKVAA
B3: R229A Redβ: Redβ variant (protein)
chain: MSTALATLAGKLAERVGMDSVDPQELITTLRQTAFKGDASDAQFIALLIVANQYGLNPWTKEIYAFPDKQNGIVPVVGVDGWSRIINENQQFDGMDFEQDNESCTCRIYRKDRNHPICVTEWMDECRREPFKTREGREITGPWQSHPKRMLRHKAMIQCARLAFGFAGIYDKDEAERIVENTAYTAERQPERDITPVNDETMQEINTLLIALDKTWDDDLLPLCSQIFARDIRASSELTQAEAVKALGFLKQKAAEQKVAA
B4: F249D Redβ (protein)
chain: MSTALATLAGKLAERVGMDSVDPQELITTLRQTAFKGDASDAQFIALLIVANQYGLNPWTKEIYAFPDKQNGIVPVVGVDGWSRIINENQQFDGMDFEQDNESCTCRIYRKDRNHPICVTEWMDECRREPFKTREGREITGPWQSHPKRMLRHKAMIQCARLAFGFAGIYDKDEAERIVENTAYTAERQPERDITPVNDETMQEINTLLIALDKTWDDDLLPLCSQIFRRDIRASSELTQAEAVKALGDLKQKAAEQKVAA
B5: Q226A Redβ: Redβ variant (protein)
chain: MSTALATLAGKLAERVGMDSVDPQELITTLRQTAFKGDASDAQFIALLIVANQYGLNPWTKEIYAFPDKQNGIVPVVGVDGWSRIINENQQFDGMDFEQDNESCTCRIYRKDRNHPICVTEWMDECRREPFKTREGREITGPWQSHPKRMLRHKAMIQCARLAFGFAGIYDKDEAERIVENTAYTAERQPERDITPVNDETMQEINTLLIALDKTWDDDLLPLCSAIFRRDIRASSELTQAEAVKALGFLKQKAAEQKVAA
B6: L223D Redβ: Redβ variant (protein)
chain: MSTALATLAGKLAERVGMDSVDPQELITTLRQTAFKGDASDAQFIALLIVANQYGLNPWTKEIYAFPDKQNGIVPVVGVDGWSRIINENQQFDGMDFEQDNESCTCRIYRKDRNHPICVTEWMDECRREPFKTREGREITGPWQSHPKRMLRHKAMIQCARLAFGFAGIYDKDEAERIVENTAYTAERQPERDITPVNDETMQEINTLLIALDKTWDDDLLPDCSQIFRRDIRASSELTQAEAVKALGFLKQKAAEQKVAA
B7: K132A Redβ: Redβ variant, non-interfacial residue Lys-132 of the NTD, control (protein)
chain: MSTALATLAGKLAERVGMDSVDPQELITTLRQTAFKGDASDAQFIALLIVANQYGLNPWTKEIYAFPDKQNGIVPVVGVDGWSRIINENQQFDGMDFEQDNESCTCRIYRKDRNHPICVTEWMDECRREPFATREGREITGPWQSHPKRMLRHKAMIQCARLAFGFAGIYDKDEAERIVENTAYTAERQPERDITPVNDETMQEINTLLIALDKTWDDDLLPLCSQIFRRDIRASSELTQAEAVKALGFLKQKAAEQKVAA
B8: K253A Redβ (protein)
chain: MSTALATLAGKLAERVGMDSVDPQELITTLRQTAFKGDASDAQFIALLIVANQYGLNPWTKEIYAFPDKQNGIVPVVGVDGWSRIINENQQFDGMDFEQDNESCTCRIYRKDRNHPICVTEWMDECRREPFKTREGREITGPWQSHPKRMLRHKAMIQCARLAFGFAGIYDKDEAERIVENTAYTAERQPERDITPVNDETMQEINTLLIALDKTWDDDLLPLCSQIFRRDIRASSELTQAEAVKALGFLKQAAAEQKVAA
B9: Q252A Redβ: Redβ variant (protein)
chain: MSTALATLAGKLAERVGMDSVDPQELITTLRQTAFKGDASDAQFIALLIVANQYGLNPWTKEIYAFPDKQNGIVPVVGVDGWSRIINENQQFDGMDFEQDNESCTCRIYRKDRNHPICVTEWMDECRREPFKTREGREITGPWQSHPKRMLRHKAMIQCARLAFGFAGIYDKDEAERIVENTAYTAERQPERDITPVNDETMQEINTLLIALDKTWDDDLLPLCSQIFRRDIRASSELTQAEAVKALGFLKAKAAEQKVAA
B10: L223A Redβ: Redβ variant (protein)
chain: MSTALATLAGKLAERVGMDSVDPQELITTLRQTAFKGDASDAQFIALLIVANQYGLNPWTKEIYAFPDKQNGIVPVVGVDGWSRIINENQQFDGMDFEQDNESCTCRIYRKDRNHPICVTEWMDECRREPFKTREGREITGPWQSHPKRMLRHKAMIQCARLAFGFAGIYDKDEAERIVENTAYTAERQPERDITPVNDETMQEINTLLIALDKTWDDDLLPACSQIFRRDIRASSELTQAEAVKALGFLKQKAAEQKVAA
B11: F94E λexo: λ Exo variant (protein)
chain: MTPDIILQRTGIDVRAVEQGDDAWHKLRLGVITASEVHNVIAKPRSGKKWPDMKMSYFHTLLAEVCTGVAPEVNAKALAWGKQYENDARTLFEETSGVNVTESPIIYRDESMRTACSPDGLCSDGNGLELKCPFTSRDFMKFRLGGFEAIKSAYMAQVQYSMWVTRKNAWYFANYDPRMKREGLHYVVIERDEKYMASFDEIVPEFIEKMDEALAEIGFVFGEQWR
modifications: left off: His6, N-terminal, kept
B12: L91D λexo (protein)
chain: MTPDIILQRTGIDVRAVEQGDDAWHKLRLGVITASEVHNVIAKPRSGKKWPDMKMSYFHTLLAEVCTGVAPEVNAKALAWGKQYENDARTDFEFTSGVNVTESPIIYRDESMRTACSPDGLCSDGNGLELKCPFTSRDFMKFRLGGFEAIKSAYMAQVQYSMWVTRKNAWYFANYDPRMKREGLHYVVIERDEKYMASFDEIVPEFIEKMDEALAEIGFVFGEQWR
modifications: left off: His6, N-terminal, kept
B13: F94A λexo (protein)
chain: MTPDIILQRTGIDVRAVEQGDDAWHKLRLGVITASEVHNVIAKPRSGKKWPDMKMSYFHTLLAEVCTGVAPEVNAKALAWGKQYENDARTLFEATSGVNVTESPIIYRDESMRTACSPDGLCSDGNGLELKCPFTSRDFMKFRLGGFEAIKSAYMAQVQYSMWVTRKNAWYFANYDPRMKREGLHYVVIERDEKYMASFDEIVPEFIEKMDEALAEIGFVFGEQWR
modifications: left off: His6, N-terminal, kept
B14: L91A λexo (protein)
chain: MTPDIILQRTGIDVRAVEQGDDAWHKLRLGVITASEVHNVIAKPRSGKKWPDMKMSYFHTLLAEVCTGVAPEVNAKALAWGKQYENDARTAFEFTSGVNVTESPIIYRDESMRTACSPDGLCSDGNGLELKCPFTSRDFMKFRLGGFEAIKSAYMAQVQYSMWVTRKNAWYFANYDPRMKREGLHYVVIERDEKYMASFDEIVPEFIEKMDEALAEIGFVFGEQWR
modifications: left off: His6, N-terminal, kept
B15: D87A λexo (protein)
chain: MTPDIILQRTGIDVRAVEQGDDAWHKLRLGVITASEVHNVIAKPRSGKKWPDMKMSYFHTLLAEVCTGVAPEVNAKALAWGKQYENAARTLFEFTSGVNVTESPIIYRDESMRTACSPDGLCSDGNGLELKCPFTSRDFMKFRLGGFEAIKSAYMAQVQYSMWVTRKNAWYFANYDPRMKREGLHYVVIERDEKYMASFDEIVPEFIEKMDEALAEIGFVFGEQWR
modifications: left off: His6, N-terminal, kept

What was measured:
λ Exo = conditions: Ni-spin pull down; cited from earlier work
GB2005 E. coli cells [1] = assay: ssDNA recombination assay; format: cell-based; conditions: % of WT colonies per 10^8 viable cells
GB2005 E. coli cells [2] = assay: dsDNA recombination assay; format: cell-based; conditions: % of WT colonies per 10^8 viable cells
[3] = individual CTD mutations; cited from earlier work

| Molecule | SS (%): ssDNA recombination compared to WT (GB2005 E. coli cells [1]) | DS (%): dsDNA recombination compared to WT (GB2005 E. coli cells [2]) | also measured |
| --- | --- | --- | --- |
| B1 | – | – | interaction with λ Exo (λ Exo): no interaction |
| B2 | 0.73% | 0.21% | DS (%): dsDNA recombination compared to WT (GB2005 E. coli cells [2]; listed as F249A): 0–0.7% |
| B3 | 58% | 71% | SS (%): ssDNA recombination compared to WT (GB2005 E. coli cells [1]; listed as R229A): 13 to 101%; DS (%): dsDNA recombination compared to WT (GB2005 E. coli cells [2]; listed as R229A): 55–106% |
| B4 | 0.41% | 0% | – |
| B5 | – | 106% | SS (%): ssDNA recombination compared to WT (GB2005 E. coli cells [1]; listed as Q226A): 13 to 101%; DS (%): dsDNA recombination compared to WT (GB2005 E. coli cells [2]; listed as Q226A): 55–106% |
| B6 | 0.68% | 0.11% | DS (%): dsDNA recombination compared to WT (GB2005 E. coli cells [2]; listed as L223D): 0–0.7% |
| B7 | 20% | 19% | – |
| B8 | 2.5% | 0.20% | – |
| B9 | 101% | 85% | SS (%): ssDNA recombination compared to WT (GB2005 E. coli cells [1]; listed as Q252A): 13 to 101%; DS (%): dsDNA recombination compared to WT (GB2005 E. coli cells [2]; listed as Q252A): 55–106%; dsDNA relative to ssDNA recombination [3]: decreased dsDNA more than ssDNA recombination |
| B10 | 3.5% | 0.72% | DS (%): dsDNA recombination compared to WT (GB2005 E. coli cells [2]; listed as L223A): 0–0.7% |
| B11 | 177% | 0.68% | DS (%): dsDNA recombination compared to WT (GB2005 E. coli cells [2]; listed as F94E): 0.6–3% |
| B12 | 110% | 3.1% | – |
| B13 | 183% | 1.6% | – |
| B14 | 103% | 0.63% | – |
| B15 | 179% | 55% | DS (%): dsDNA recombination compared to WT (GB2005 E. coli cells [2]; listed as D87A): 55–106% |
